According to patent publication US20230348564A1, “ANTI-CANCER PROTEINS” (UNICHEM LABORATORIES LTD, priority 2020, published 2023):

Tests used:
MDA-MB-231 = experiment: Annexin-V staining (flow cytometry); assay type: cell-based, Human; conditions: 24 h
Description: (§1) The cell lines were maintained in DMEM+10% FBS (heat inactivated) at 37° C. with 5% CO2, and 95% humidity. Antibiotics Penicillin (100 U/mL) and Streptomycin (100 μg/mL) were added to the medium.
(§2) The stock solution of recombinant lectin having the amino acid sequence of SEQ ID NO. […] Doxorubicin was used as positive control and stock solution was prepared in DMSO.
(§3) Cells were counted using hemocytometer and plated in culture plates at the density of 0.4×10^6 cells/well in DMEM+10% FBS in 6-well plates. Cells were incubated overnight to allow the cell recovery and exponential growth. Following overnight incubation, cells were treated with Lectin having the amino acid sequence of SEQ ID NO. 2 in DMEM+0% FBS at concentrations ranging from 2.5 μg/mL to 80 μg/mL. Untreated cells were included as Control group for sample. Cells treated with Doxorubicin were included as Positive Control group. DMSO treated cells were included as control group for Doxorubicin. After treatment, cells were incubated for a time period of 24 h.
(§4) Following incubation, the pro-apoptotic effect was estimated using Annexin assay kit as follows: Annexin reagent contains Annexin-V+7-AAD stain, which differentially labels apoptotic cells in different phases. Four populations of cells can be determined from the flow cytometric plots as follows: • a) Upper Left (UL)—7-AAD(+)/Annexin(−) or Necrotic cells • b) Upper Right (UR)—7-AAD(+)/Annexin(+) or Late apoptotic cells • c) Lower Left (LL)—7-AAD(−)/Annexin(−) or Viable/non-apoptotic cells • d) Lower Right (LR)—7-AAD(−)/Annexin(+) or Early apoptotic cells
(§5) Cells were gently harvested into pre-labeled sterile centrifuge tubes and centrifuged at 300×g for 5-7 min. Supernatant were discarded and the pellet was resuspended in 200 μl of fresh culture medium.
(§6) 100 μl of cell suspension was transferred into pre-labeled sterile centrifuge tubes.
(§7) 100 μl of Annexin-V reagent was added to each tube and incubated for 30 min at RT in dark.
(§8) Cells stained for Annexin-V were then transferred into 96-well plates and acquired on flow cytometer (Guava technologies). Percentage of cells in early apoptotic, late apoptotic and necrotic phase were determined.
(§9) Fold increase in apoptotic cells (treated with Test Items) was determined as compared to Control (untreated cells).

PANC-1 = experiment: Annexin-V staining (flow cytometry); assay type: cell-based, Human; conditions: 24 h
Description: as §1, §2, §3, §4, §5, §6, §7, §8, §9

[1] = tested on: neovascularization of Matrigel plug containing FGF-2 (bFGF); experiment: Matrigel plug assay (in-vivo anti-angiogenesis); set-up: species or system C57BL/6 mice; conditions: qdx15
Description: Healthy C57BL/6 mice were selected and grouped on the basis of body weight into […] (G1-G4, n=7). Each mouse of group G2-G4 was subcutaneously injected at right flank region with 500 μl of matrigel containing 500 ng of FGF-2 (bFGF). Whereas mice of G1 group were subcutaneously injected at right flank region with 500 μl of matrigel only. In this assay, angiogenesis-inducing compounds such as bFGF was introduced into cold liquid Matrigel which, after subcutaneous injection, solidified and permits penetration by host cells and the formation of new blood vessels (neovascularization).
Required amount of test items were taken and added to an appropriate volume of Tris Buffered Saline (TBS) to achieve the required concentrations. The dose volume given to animal was 10 mL/Kg.
Daily cage-side observations were carried out to detect any clinical signs or mortality and recorded throughout the experiment period.

Notch-1 = experiment: biomarker levels in IOMM-Lee by ELISA; assay type: cell-based, Human; conditions: 1 μg/mL-80 μg/mL, 48 h
Description: Effect of SEQ ID No 2 on the expression of following 7 biomarkers were estimated in Human Meningioma cell line (IOMM-Lee) using multiplex analysis: TNF-alpha, VEGF, VEGFR2, HGF, HGFR/c-MET, PDGF-BB, and Contactin-1. Levels of another marker, Notch-1 were also estimated by ELISA in the same cell line. These 8 biomarkers play very crucial role in the pathogenesis and progression of Brain Tumor. […] Supernatants were collected and the levels of these 8 markers were investigated.

B1: SEQ ID NO. 2: recombinant lectin; variant of the S. rolfsii lectin amino acid sequence (reported as Rec-2 in WO 2010/095143) (protein)
chain: TYKITVRVYQTNPDAFFHPVEKTVWKYANGGTWTITDDQHVLTMGGSGTSGTLRFHADNGESFTATFGVHNYKRWCDIVTNLAADETGMVINQQYYSQKNREEARERQLSNYQVKNAKGRNFQIVYTEAEGNDLHANLIIG
modifications: In vitro synthesis
MDA-MB-231; 2.5 μg/mL
  % Population of cells, LL Annex− 7AAD− Viable: 75.7%
  % Population of cells, LR Annex+ 7AAD− Early apoptotic: 7.9%
  % Population of cells, UL Annex− 7AAD+ Necrotic: 3.2%
  % Population of cells, UR Annex+ 7AAD+ Late apoptotic: 13.2%
  Fold increase (wrt control), LR Annex+ 7-AAD−: 15.8 fold
  Fold increase (wrt control), UL Annex− 7-AAD+: 4.6 fold
  Fold increase (wrt control), UR Annex+ 7-AAD+: 22.0 fold
MDA-MB-231; 5 μg/mL
  % Population of cells, LL Annex− 7AAD− Viable: 72.3%
  % Population of cells, LR Annex+ 7AAD− Early apoptotic: 7.0%
  % Population of cells, UL Annex− 7AAD+ Necrotic: 12.5%
  % Population of cells, UR Annex+ 7AAD+ Late apoptotic: 8.2%
  Fold increase (wrt control), LR Annex+ 7-AAD−: 14.0 fold
  Fold increase (wrt control), UL Annex− 7-AAD+: 17.9 fold
  Fold increase (wrt control), UR Annex+ 7-AAD+: 13.7 fold
MDA-MB-231; 10 μg/mL
  % Population of cells, LL Annex− 7AAD− Viable: 64.1%
  % Population of cells, LR Annex+ 7AAD− Early apoptotic: 5.8%
  % Population of cells, UL Annex− 7AAD+ Necrotic: 20.6%
  % Population of cells, UR Annex+ 7AAD+ Late apoptotic: 9.5%
  Fold increase (wrt control), LR Annex+ 7-AAD−: 11.6 fold
  Fold increase (wrt control), UL Annex− 7-AAD+: 29.4 fold
  Fold increase (wrt control), UR Annex+ 7-AAD+: 15.8 fold
MDA-MB-231; 20 μg/mL
  % Population of cells, LL Annex− 7AAD− Viable: 58.5%
  % Population of cells, LR Annex+ 7AAD− Early apoptotic: 2.9%
  % Population of cells, UL Annex− 7AAD+ Necrotic: 32.7%
  % Population of cells, UR Annex+ 7AAD+ Late apoptotic: 5.9%
  Fold increase (wrt control), LR Annex+ 7-AAD−: 5.8 fold
  Fold increase (wrt control), UL Annex− 7-AAD+: 46.7 fold
  Fold increase (wrt control), UR Annex+ 7-AAD+: 9.8 fold
MDA-MB-231; 80 μg/mL
  % Population of cells, LL Annex− 7AAD− Viable: 61.0%
  % Population of cells, LR Annex+ 7AAD− Early apoptotic: 5.3%
  % Population of cells, UL Annex− 7AAD+ Necrotic: 26.0%
  % Population of cells, UR Annex+ 7AAD+ Late apoptotic: 7.7%
  Fold increase (wrt control), LR Annex+ 7-AAD−: 10.6 fold
  Fold increase (wrt control), UL Annex− 7-AAD+: 37.1 fold
  Fold increase (wrt control), UR Annex+ 7-AAD+: 12.8 fold
PANC-1; 2.5 μg/mL
  % Population of cells, LL Annex− 7AAD− Viable: 87.7%
  % Population of cells, LR Annex+ 7AAD− Early apoptotic: 0.5%
  % Population of cells, UL Annex− 7AAD+ Necrotic: 10.8%
  % Population of cells, UR Annex+ 7AAD+ Late apoptotic: 1.0%
  Fold increase (wrt control), LR Annex+ 7-AAD−: 5.0 fold
  Fold increase (wrt control), UL Annex− 7-AAD+: 1.0 fold
  Fold increase (wrt control), UR Annex+ 7-AAD+: 2.5 fold
PANC-1; 5 μg/mL
  % Population of cells, LL Annex− 7AAD− Viable: 81.3%
  % Population of cells, LR Annex+ 7AAD− Early apoptotic: 0.4%
  % Population of cells, UL Annex− 7AAD+ Necrotic: 15.5%
  % Population of cells, UR Annex+ 7AAD+ Late apoptotic: 2.8%
  Fold increase (wrt control), LR Annex+ 7-AAD−: 4.0 fold
  Fold increase (wrt control), UL Annex− 7-AAD+: 1.5 fold
  Fold increase (wrt control), UR Annex+ 7-AAD+: 7.0 fold
PANC-1; 10 μg/mL
  % Population of cells, LL Annex− 7AAD− Viable: 78.7%
  % Population of cells, LR Annex+ 7AAD− Early apoptotic: 0.0%
  % Population of cells, UL Annex− 7AAD+ Necrotic: 20.8%
  % Population of cells, UR Annex+ 7AAD+ Late apoptotic: 0.4%
  Fold increase (wrt control), UL Annex− 7-AAD+: 2.0 fold
  Fold increase (wrt control), UR Annex+ 7-AAD+: 1.0 fold
PANC-1; 20 μg/mL
  % Population of cells, LL Annex− 7AAD− Viable: 71.5%
  % Population of cells, LR Annex+ 7AAD− Early apoptotic: 0.0%
  % Population of cells, UL Annex− 7AAD+ Necrotic: 28.1%
  % Population of cells, UR Annex+ 7AAD+ Late apoptotic: 0.4%
  Fold increase (wrt control), UL Annex− 7-AAD+: 2.7 fold
  Fold increase (wrt control), UR Annex+ 7-AAD+: 1.0 fold
PANC-1; 80 μg/mL
  % Population of cells, LL Annex− 7AAD− Viable: 72.8%
  % Population of cells, LR Annex+ 7AAD− Early apoptotic: 0.0%
  % Population of cells, UL Annex− 7AAD+ Necrotic: 26.7%
  % Population of cells, UR Annex+ 7AAD+ Late apoptotic: 0.5%
  Fold increase (wrt control), UL Annex− 7-AAD+: 2.6 fold
  Fold increase (wrt control), UR Annex+ 7-AAD+: 1.3 fold
[1]; 10 mg/Kg, i.p.
  neovascularization (H&E histology), in words: marginally reduced
[1]; G4, 10 mg/Kg, i.p.
  Hemoglobin Content in the Matrigel Plug Section, Mean: 41.10
  reduction in hemoglobin content in homogenate of Matrigel plug compared to positive control: 23.6%
[1]; G4, 10 mg/Kg
  Histological Observation, Fat cell Infiltration, Mean: 1.57
  Histological Observation, Fibroblast Infiltration, Mean: 3.29
  Histological Observation, MN cell Infiltration, Mean: 2.71
  Histological Observation, Neovascularization, Mean: 2.43
Notch-1
  Percentage inhibition on levels of Notch-1: 81.2%-99.8%
MIAPaCa-2
  % Cytotoxicity: 47.5%
